Reference: patent publication US20230340132A1, “ANTI-ADENOSINE RECEPTOR (A2aR) ANTIBODIES” (NA Biotech Corp, priority 2020, published 2023)
Blank lines part the entries; values can stand above or below the molecule they belong to.

How the values were obtained:
[1] = molecular target: human adenosine receptor A1 (human) (UniProt P30542); test: flow cytometry on HEK293T-A1 cells; anti-FLAG 2 ug/mL, positive control; duplicate 2
[2] = molecular target: T1, mouse adenosine receptor A2A (mouse, UniProt Q60613 1-410); test: flow cytometry on HEK293T-mA2A cells; anti-FLAG 2 ug/mL, positive control; duplicate 2
T1 construct: whole, on cells; the tag is not described; also called mouse A2aR; mouse A2R

[3] = molecular target: T1, mouse adenosine receptor A2A; test: flow cytometry on HEK293T-mA2A cells; anti-FLAG 2 ug/mL, positive control; duplicate 1
[4] = molecular target: T2, human adenosine receptor A3 (human, UniProt P0DMS8 1-318); test: flow cytometry on HEK293T-A3 cells; anti-FLAG 2 ug/mL, positive control; duplicate 2
T2 construct: whole, on cells; the tag is not described; also called A3R; human A3R
T2 sequence (looked up): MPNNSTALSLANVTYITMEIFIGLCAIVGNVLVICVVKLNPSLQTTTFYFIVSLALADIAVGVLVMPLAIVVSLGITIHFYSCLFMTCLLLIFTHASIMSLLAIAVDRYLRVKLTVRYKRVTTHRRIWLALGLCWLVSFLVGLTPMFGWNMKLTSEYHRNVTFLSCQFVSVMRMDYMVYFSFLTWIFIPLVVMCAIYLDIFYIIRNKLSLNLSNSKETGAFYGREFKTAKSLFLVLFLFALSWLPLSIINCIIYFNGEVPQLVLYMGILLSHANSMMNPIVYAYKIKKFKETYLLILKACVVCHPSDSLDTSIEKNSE

[5] = molecular target: T3, human adenosine receptor A2B (human, UniProt P29275 1-332); test: flow cytometry on HEK293T-A2B cells; anti-FLAG 2 ug/mL, positive control; duplicate 1
T3 construct: whole, on cells; the tag is not described; also called A2bR; human A2bR
T3 sequence (looked up): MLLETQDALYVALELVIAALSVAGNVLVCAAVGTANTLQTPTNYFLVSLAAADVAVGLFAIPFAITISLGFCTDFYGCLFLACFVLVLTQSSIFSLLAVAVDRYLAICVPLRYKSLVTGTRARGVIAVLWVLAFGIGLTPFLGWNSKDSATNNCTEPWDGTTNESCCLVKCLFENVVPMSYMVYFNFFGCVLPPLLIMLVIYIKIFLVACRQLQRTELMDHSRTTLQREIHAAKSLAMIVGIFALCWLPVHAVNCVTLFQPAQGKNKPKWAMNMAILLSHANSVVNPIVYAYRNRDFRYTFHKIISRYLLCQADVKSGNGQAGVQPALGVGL

[6] = molecular target: T4, human adenosine A2A receptor (A2aR) (human, UniProt P29274 1-412); test: flow cytometry on HEK293T-A2A cells; anti-FLAG 2 ug/mL, positive control; duplicate 1
[7] = molecular target: T2, human adenosine receptor A3; test: flow cytometry on HEK293T-A3 cells; anti-FLAG 2 ug/mL, positive control; duplicate 1
[8] = molecular target: T4, human adenosine A2A receptor (A2aR); test: flow cytometry on HEK293T-A2A cells; anti-FLAG 2 ug/mL, positive control; duplicate 2
[9] = molecular target: T3, human adenosine receptor A2B; test: flow cytometry on HEK293T-A2B cells; anti-FLAG 2 ug/mL, positive control; duplicate 2
[10] = molecular target: human adenosine receptor A1 (human) (UniProt P30542); test: flow cytometry on HEK293T-A1 cells; anti-FLAG 2 ug/mL, positive control; duplicate 1
[11] = molecular target: T3, human adenosine receptor A2B; test: flow cytometry on HEK293T-A2B cells; isotype control 50 nM; duplicate 1
[12] = molecular target: human adenosine receptor A1 (human) (UniProt P30542); test: flow cytometry on HEK293T-A1 cells; isotype control 10 nM; duplicate 2
[13] = molecular target: T3, human adenosine receptor A2B; test: flow cytometry on HEK293T-A2B cells; isotype control 10 nM; duplicate 2
[14] = molecular target: T3, human adenosine receptor A2B; test: flow cytometry on HEK293T-A2B cells; isotype control 50 nM; duplicate 2
[15] = molecular target: T2, human adenosine receptor A3; test: flow cytometry on HEK293T-A3 cells; isotype control 10 nM; duplicate 1
[16] = molecular target: T2, human adenosine receptor A3; test: flow cytometry on HEK293T-A3 cells; isotype control 10 nM; duplicate 2
[17] = molecular target: human adenosine receptor A1 (human) (UniProt P30542); test: flow cytometry on HEK293T-A1 cells; isotype control 50 nM; duplicate 1
[18] = molecular target: T1, mouse adenosine receptor A2A; test: flow cytometry on HEK293T-mA2A cells; isotype control 10 nM; duplicate 1
[19] = molecular target: T2, human adenosine receptor A3; test: flow cytometry on HEK293T-A3 cells; isotype control 50 nM; duplicate 1
[20] = molecular target: T1, mouse adenosine receptor A2A; test: flow cytometry on HEK293T-mA2A cells; isotype control 10 nM; duplicate 2
[21] = molecular target: T4, human adenosine A2A receptor (A2aR); test: flow cytometry on HEK293T-A2A cells; isotype control 50 nM; duplicate 1
[22] = molecular target: T1, mouse adenosine receptor A2A; test: flow cytometry on HEK293T-mA2A cells; isotype control 50 nM; duplicate 1
[23] = molecular target: T4, human adenosine A2A receptor (A2aR); test: flow cytometry on HEK293T-A2A cells; isotype control 10 nM; duplicate 1
[24] = molecular target: T3, human adenosine receptor A2B; test: flow cytometry on HEK293T-A2B cells; isotype control 10 nM; duplicate 1
[25] = molecular target: T2, human adenosine receptor A3; test: flow cytometry on HEK293T-A3 cells; isotype control 50 nM; duplicate 2
[26] = molecular target: T4, human adenosine A2A receptor (A2aR); test: flow cytometry on HEK293T-A2A cells; isotype control 10 nM; duplicate 2
[27] = molecular target: human adenosine receptor A1 (human) (UniProt P30542); test: flow cytometry on HEK293T-A1 cells; isotype control 10 nM; duplicate 1
[28] = molecular target: T1, mouse adenosine receptor A2A; test: flow cytometry on HEK293T-mA2A cells; isotype control 50 nM; duplicate 2
[29] = molecular target: T4, human adenosine A2A receptor (A2aR); test: flow cytometry on HEK293T-A2A cells; isotype control 50 nM; duplicate 2
[30] = molecular target: human adenosine receptor A1 (human) (UniProt P30542); test: flow cytometry on HEK293T-A1 cells; isotype control 50 nM; duplicate 2
tumor = conditions: mice treated with A2aR antagonist; background statement; cited from earlier work
[31] = molecular target: T2, human adenosine receptor A3; test: flow cytometry on HEK293T cells stably expressing human A3R
[32] = molecular target: T4, human adenosine A2A receptor (A2aR); test: cell-based or functional assay
[33] = molecular target: T3, human adenosine receptor A2B; test: flow cytometry on HEK293T cells stably expressing human A2bR
[34] = molecular target: T1, mouse adenosine receptor A2A; test: flow cytometry on HEK293T cells stably expressing mouse A2aR
parental Expi293 cells = test: FACS screening of hybridoma clones on parental Expi293 cells; assay type: binding; conditions: antibodies from hybridoma clones
Method: (§1) Serum titration was performed using Fluorescence-Activated Cell Sorting (FACS) pursuant to standard procedures. Human A2aR-expressing Expi293 cells were first added to 96-well plate (1×10^5 cells per well), 50 μl of serial diluted serum (1:50, 1;150, 1:450, 1:[…], 1:12150) from each individual mouse was incubated with cells for 30 min. on ice. After washing with FACS buffer (2% Fetal bovine serum, 2 mM EDTA in PBS), Alex Fluor 647-conjugated anti mouse IgG was added and incubated for 20 min on ice. Cells were resuspending with 100 μl FACS buffer after two times wash and ready for FACS analysis (BD LSR II Flow Cytometer, HTS). […] (MFI: mean fluorescence intensity).
(§2) Primary screening of the hybridoma supernatants in the 96-well plates was performed using the same FACS procedure as described for serum titration except following changes: 1) Human A2aR-expressing Expi293 cells (expressing GFP) were mixed at 1:1 ratio with parental Expi293 (no A2aR expression) and added to 96-well plates (2×10^5 cells per well), 2) 50 μl hybridoma supernatant transferred from each well of 96-well plates was incubated with cells for 30 min. on ice.
(§3) Sub-cloning was performed by limiting dilution method. In short, the positive wells identified by FACS were seeded into 96-well plate at an average density of 1 cell/well. The […] was placed in incubator for 7-10 days to allow the growth of the cells. The growth of cells was monitored periodically. At about day 4, the wells on the plate were observed under phase contrast microscopy and the wells which appeared to have single colony growing (i.e., only one clumping of hybridomas) were recorded. The cells from the single colony wells were screed by FACS using the same procedure as described for primary screening of hybridoma when the confluence of the cell reached about 50%.

human A2aR = molecular target: T5, human A2aR (Homo sapiens, UniProt P29274); test: FACS screening of hybridoma clones on human A2aR-expressing Expi293 cells; assay type: binding; conditions: antibodies from hybridoma clones
T5 construct: expressed in transfected cells; host or cells: Expi293
Method: as §1, §2, §3

T4 sequence (P29274 whole entry): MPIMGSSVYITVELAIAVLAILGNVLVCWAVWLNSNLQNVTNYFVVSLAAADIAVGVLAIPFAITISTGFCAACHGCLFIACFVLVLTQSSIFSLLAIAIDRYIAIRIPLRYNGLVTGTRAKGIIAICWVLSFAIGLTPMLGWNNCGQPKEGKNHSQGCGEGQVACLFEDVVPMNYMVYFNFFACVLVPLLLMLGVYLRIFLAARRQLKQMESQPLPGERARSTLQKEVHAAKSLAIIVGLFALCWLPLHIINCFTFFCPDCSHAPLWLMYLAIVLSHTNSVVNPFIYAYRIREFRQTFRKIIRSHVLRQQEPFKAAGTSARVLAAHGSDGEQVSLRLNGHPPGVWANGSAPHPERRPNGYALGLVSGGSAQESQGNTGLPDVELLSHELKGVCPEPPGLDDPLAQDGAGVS
human adenosine receptor A1 (human), sequence (P30542 whole entry): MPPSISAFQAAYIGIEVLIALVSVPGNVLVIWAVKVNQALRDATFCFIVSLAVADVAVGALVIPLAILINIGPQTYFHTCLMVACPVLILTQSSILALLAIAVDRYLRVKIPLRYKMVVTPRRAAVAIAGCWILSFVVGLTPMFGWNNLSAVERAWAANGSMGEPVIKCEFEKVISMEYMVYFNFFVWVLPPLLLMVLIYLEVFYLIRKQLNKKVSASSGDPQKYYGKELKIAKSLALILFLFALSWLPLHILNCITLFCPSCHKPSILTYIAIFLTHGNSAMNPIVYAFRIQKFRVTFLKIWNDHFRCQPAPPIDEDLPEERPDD
T1 sequence (Q60613 whole entry): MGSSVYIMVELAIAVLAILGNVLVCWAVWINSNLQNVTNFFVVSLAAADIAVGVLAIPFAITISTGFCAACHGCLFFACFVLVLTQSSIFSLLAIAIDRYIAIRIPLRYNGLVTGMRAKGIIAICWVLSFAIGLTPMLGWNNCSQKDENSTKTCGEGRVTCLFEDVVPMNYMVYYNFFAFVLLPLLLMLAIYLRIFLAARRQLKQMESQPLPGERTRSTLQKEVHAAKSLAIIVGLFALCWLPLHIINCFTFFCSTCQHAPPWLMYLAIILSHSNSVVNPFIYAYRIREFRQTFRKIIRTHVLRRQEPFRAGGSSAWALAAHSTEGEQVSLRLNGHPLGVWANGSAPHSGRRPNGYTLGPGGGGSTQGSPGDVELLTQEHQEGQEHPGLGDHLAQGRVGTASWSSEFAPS
T5 sequence (P29274 whole entry): as the sequence (P29274 whole entry) above

Molecule: Anti-FLAG antibody (Abcam, ab72469)
Geo Mean [1]: 121
Geo Mean [2]: 105
Geo Mean [3]: 70.4
Geo Mean [4]: 47.4
Geo Mean [5]: 78.6
Geo Mean [6]: 183
Geo Mean [7]: 48.2
Geo Mean [8]: 223
Geo Mean [9]: 50.1
Geo Mean [10]: 53.3

Molecule: Nc1nc(NCCc2ccc(O)cc2)nc2nc(-c3ccco3)nn12 [ZM241385]
tumor growth (tumor): significant delay in tumor growth

B1: anti-human A2aR monoclonal antibody 3F6-9G5 (mouse IgG2a format) (antibody, V domains shown)
VH: QVQLQQPGTELVKPGAPVRLSCKASGFAFTSYWMNWVRQRPGRGLEWIGRIDPSDSEAHYHHKFWGKATLTVDKSSSTVYIQLNGLTSEDSAVYYCLRSLYGKGDYWGHGTTLTVSS
VL: DVLMTQTPLSLSVRLGDQASISCRSSQSLVHRNGNTYLEWYLQRPGQSPKLLIYKVSNRFSGVPDRFSGSGSGTDFTLKISRVEAEDLGVYYCYQGSHVPLTFGSGTKLEIK
notes: Tested as whole mouse IgG2a / kappa, purified from hybridoma supernatant or made recombinantly in Expi293 cells
binding result [31]: no binding (tested: 2, 10 and 50 nM tested)
IC50 (M), cAMP-Glo assay of NECA-induced cAMP in HEK293 cells stably expressing human A2aR [32]: 1.57e-09 M
binding result [33]: no binding (tested: 2, 10 and 50 nM tested)
binding result [34]: no binding (tested: 2, 10 and 50 nM tested)

The next lines start with results.

Geo Mean [11]: 2.33
Geo Mean [12]: 2.24
Geo Mean [13]: 2.41
Geo Mean [14]: 2.69
Geo Mean [15]: 1.9
Geo Mean [16]: 1.81
Geo Mean [17]: 2.5
Geo Mean [18]: 2
Geo Mean [19]: 1.87
Geo Mean [20]: 2.39
Geo Mean [21]: 2.92
Geo Mean [22]: 2.05
Geo Mean [23]: 2.97
Geo Mean [24]: 2.42
Geo Mean [25]: 1.84
Geo Mean [26]: 2.82
Geo Mean [27]: 2.48
Geo Mean [28]: 2.06
Geo Mean [29]: 2.83
Geo Mean [30]: 2.7
Molecule: mouse IgG2a isotype control (antibody)

IC50 (M), cAMP-Glo assay of NECA-induced cAMP in HEK293 cells stably expressing human A2aR [32]: 4.35e-09 M
binding to human A2aR-expressing cells (FIG. 2) (human A2aR): specific binding
B2: anti-human A2aR monoclonal antibody 3F8-12E9 (antibody, mouse IgG2a, V domains shown)
VH: QVQLQQPGTELVKPGAPVKLSCKASGFTFTRYWMNWVKQRPGRGLEWIGRIDPSDSETHYNHKFWGKATLTVDKSSSTAYIQLNSLTSEDSAVYYCLRSLYGKGDYWGQGTTLTVSS
VL: DVLMTQTPLSLSVGLGDQASISCRSSQSIVHSNGNTYLEWYLQRPGQSPKLLIYKVSNRFSGVPDRFSGSGSGTDFTLKISRVEAEDLGVYYCYQGSHVPLTFGSGTKLEIK
binding to parental Expi293 cells (FIG. 2) (parental Expi293 cells): not to parental Expi293 cells
